Results as given in the NTF2 design screens of Basanta et al. (2020).

Experiment: protease stability score; higher = more stable; yeast display proteolysis, trypsin and chymotrypsin;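 note: log10 excess protease needed over predicted unfolded state with 0 meaning unfolded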

Compared with “DDDAVRKLRELIKAVKDGDPSRAKELMDPNAEIVVGDHYIRGMDNFDKEIDRQKKEARVEYRLKRVRHDENHIKVDAEVIFNVNGRPVTFKLKMRVKLHNGKMIEVEQQVDESSIERVKS”, “DEDERAEKMARTAQEILETGDEEKAKRLFPPNARAKVGDRTYHGREDIVKHLKELWDRADHVRVEIKSFRVRGDNVHVVMTLVFTYNGKNETQQLTMIFVHVNGRQVAQDMKIG” is lower in protease stability score: 1.01 for the first, 0.671 for the second.

First: DEDDNRKMHKLMETGDFEKIAHHADPNAHAKYGDKTVTGKEELKSVFTKFNRAVDHVQVQDVRIRGDKVTLDAEVNVNGQTVQVTVSARAHNGQIKHFKIQARDEQIQRDIKDALE
Second: DESDQDRFRKYLHQLQNGDEKKLRKNMDPNVKFEVGEKRYEGREEYAKKVRQEVEEMRFSFKIHDIEVHNGRVTVEFEVTYEHNGRPDHEHVRIEMEVHNGKIRSVRQESDK
The protease stability score of the first is higher: 0.845 for the first, 0.043 for the second.

Compared with “DEEERRKAHELVKHNDWDKLMKNAPPDVTARIGDRTVHGMEEQVRIEHNMLRRVDENQLHSVDNSGNQLVVTLHVQINGRRFKFTVKIVIHNGQVTTVKVQARDEKEKRKLTELMG”, “DERVAHEFVKAINKGDPDRLNELADKNARAEVGDKTFHGREKLEQMWKQWKKMVDHIHIRRVRVHNGHIHVDYVVNIDGQNNQLEIKAVVENGKVQEVKIQVTDEQNQDKLRKKMD” is higher in protease stability score: 0.566 for the first, 1.25 for the second.

Compared with “DEDQVQRVREMIKAWQHNDPEKLMQQVDPNVKARVGDKTLQGREQMSKDLDRRRKEARFVIRVQEVDKRENRVQVNVKMKVNHNGHPHSFSFILNVEVHGDHIHTIHIERDK”, “DEDRMRELMKVMMDAVRNGNQEQAYKVMDEGGEFHVGDKTVRGPEQVKEYVKEVQDWGNHVEYKETHYEGDTATVKTQAHLGDVTVDFEVHYVVKGNKLKRFEVRFNKEQIKEFKKS” is higher in protease stability score: 0.356 for the first, 0.593 for the second.

First: DEKETKKVLEQAAKLFVNGDVHRVMQLGADDVEVEYGDERYHGKDAAKRVIEKHQKLGIKVEYDELHVEGDRVKAKVRADQAGTTAHFTFEYKATGQRVDKMRVKYDETAQKMIKHG
Second: EEELFEQWQKIIENQEHGNEDRLQDQFDPNARIDVGDKRIRGRENLAKDQQDKLDNIRFDFQIDHVQDRPGKIVIKYHEVNNHNGKPRSDTVVVHIQAHNGKIQRIDVQKDK
The protease stability score of the first is lower: -0.23 for the first, -0.065 for the second.

First: KEEDVEKVAKRLITLVQEGNVDVMRKYLAPDVEVQYGDVEVKGPDQVVKHVRDLRRQGYRVQLKEVQVEGNTAETVLDYQAGDQKYTATVKAQVKGGVLKRATVKASPEMKKVVKAG
Second: DDHEQRSLQELVKKNDEEKFAEQADKDVKVDVGDSRIHGREEWRKFVKRLKDRADHIEIHSVKADGEKLEVHREMTVDGRRVVYYVRYEVHNGRIKSISLQARTEDDQRKLQHVLS
The protease stability score of the first is higher: 1.38 for the first, 0.919 for the second.

Going from “DERLEDKMRKFLEVLRTGDEKKLRDLADPNVRFDIGEKKYRGRDEAVREYKRMRDEIRFEIKIRSLEAQGNKVDVTFEMTYDHNGKPKHNVVKLVFEQHNGKLKQLKVKSDK” to “DREEAKKVAEKAAKYFQNWNVEQLLKLIPDGGKYRIADEERHGPDVIKEVVEKQQRMGLEVEVKEVHAEGDTVHTVLDYRLGDTTATVHIQAKVQGGRIDEVQVDIPEEAQKMLKQG”, the protease stability score falls from 0.596 to 0.401.

First: DDEKQAHRAFEEWERALRTGNEEDLKRLADENVQVQVGDKQLDGREEVVKWMLDQAERVDHIQIDIKHLRIQNGRVEVNIIIQNNHNGQNQTHTMVVVMRNHNGNLYISDVQRR
Second: DEEQLKEYTKEMEHNDEEQFSRMMDKDARVIVGDKTFTGREDAATMLLLIRRRVDHIEIRKITIQGDHVVVHQVVQVNGKEAEFEREVHVKNGHIKEVHIQARDEDDERVLHQAMD
The protease stability score of the first is higher: 1.31 for the first, 0.468 for the second.

Compared with “DEEDDKKMNELLKQIQTGNDQKVERLIDPNANMHIGNQDIHGSEDVRKWIEKITKELNITFKVNHFRVKGDKIKIKVKINVKHNGQPDSDTIDLVARVENGHFTRIELHMDEKRWKKQVS”, “DEDKVRELVKKAFKAIVNGNEEEVRKLLDPNVKYKYVDKEFEGEEVAKFLVEMVRKLGAKVETEKTHIEGNTARATFVYKLGDQKVQTHAEVKYEGDKVKEVRVEMTDEDKKQLHRG” is higher in protease stability score: 1.15 for the first, 1.17 for the second.

Going from “DERARERVEELLQVENDGDPDKVMEYFDPNAKAEIGDKHIHGRETFRHRLERTNKEMRYHLEVEHIRVNGNNVEMTFRAETEHNGQPSHDRNHAVLHITNGRIKYKRVKRDG” to “DERAQDLVRQWLENVHTGDPSKLREQMDPNAHVVIGDRTFTGRENFAETVHHHLQDQRVQYDTMRIENEGEKARFRYKATVQHNGQPSKHQATAQLTLHNGRIQSLQMESTQ”, the protease stability score falls from 0.178 to -0.162.

First: DEHVSRNLLRVLKLMHKGNFEEVVNNMDPNARIKVGDKEVHGREKEQTKNRKKEKHMELKVDDYRFRDNNGQVEAEVDQKFTHDGQPRSERFKFRVEAHNGRIKKQSQKEDR
Second: DEDDLVRQMVDRAEEAAQTGDEKKFANLFDPNARFRYGDKDVHGREEWEKRLDEERKRADRLHIKFDSVRVHGDKVDLHFTWRVVVNGESSERVVIIHAVKQGDRIVAKYVREG
The protease stability score of the first is lower: 0.007 for the first, 0.611 for the second.

Going from “DEDLERKVKELMEVLKSGDESKWMEMVDPNARVQVGDTEIHGRENRREDLKRHKEDSRLDLKSYNVRVHNGQVEVHMSYTYEHNGQPRTSQATARFQLHNGRITEVNVNTTK” to “DEKHDAKRVWETILNQLRRGDSEEFMKLADKDVKIEYGDKTIHGREDLKSWMNERQKDYDHLDADLTHMDVQGEDVNVTYTDRAKHNGTEHHRTVQAVFRVHNGRLRLQSWYHS”, the protease stability score rises from -0.309 to 0.494.

First: DETNERVARTMLEVRQHNNPDDLRKMLDPNVKVVIGDKEVHGREDYINKFEERVKHIRVDVKVDHIDSQGNRLDIDVTFTMNVNGQPVKDRMRFVIQITNGKIEEVDVSVPEEELKKQEK
Second: DEEEVRRIAHEFLKAVERGDEKRVRQLADKDVRAVVGDKRIHGKKDLAKLVKTLRDRADQFKVRDLEVQGNHVEVDLVMIVNGQSVDMSINIVVHNGTIHHMEIRVTDEDRMREVNS
The protease stability score of the first is higher: 0.909 for the first, -0.053 for the second.

First: DDRDIERMAKDYVRAIRTGDEEQIRRLMDKDVKYEIGDKTIHGRENWAKWVKNFRRHADHVRLKDMRVHGNKIDLNMEFQVNGEKKRQKYDIQVHNGRIKTVRIEDS
Second: DEDKQLHELFERLVEAIRNGDPKKYQDNADENAKIRVGDKEYTGREQLEKLVEDIRKDVDHLEVDFKRVKVEGDKATAIVKVRANFNGKNDDTMYQYQAKIHGDKIHVVNVQQS
The protease stability score of the first is higher: 1.47 for the first, 0.165 for the second.

First: DERDVKSVIDLVKTGDFDQMVRNADKDVKIRIGDKHVHGREQASEAMKKFTDQIDHYEVKSVNVNNGRVIVEAVFVVNGEKITVTVIVEAQNGRITHVEWRYRDEHDKKLLRKILG
Second: DQEKLETLARQVFDAFREGDEETFRRLADPNVTAVYGDQKYRGRERVAKWLKDLANQIDHLQLNDVTIQGEKMHFDATVRINGKNRKLVMIVEAENGTLKRVVLSHG
The protease stability score of the first is higher: 1.47 for the first, 0.166 for the second.

First: DEQDNEKARRIMDRGDPHELNRMADKDARVQVGDKTWHGRSQFEEFVKRFHDRVDHIEVKSVHVHGNEVRVDLVVVVNGHEARFIMVASVHNGHATSLSINVTDPRVEEVLRDIFD
Second: DHEAQKALRDVIEAIRENNPDEVKKQLDKNATVRVGDKRLHGTEEQRREVQKKLDEIRIRYQDIKMETSGDTVRASIQFVENHNGEPQRDRVTASMSADNGRVKHFVVTETQ
The protease stability score of the first is higher: 0.014 for the first, -0.041 for the second.

Compared with “DEEDLKNQARDFIEALETGDEDQIARLADPDAEADVGDTKYTGREEVREYMKHISDNVDHIQLKDMKVSGNEITIVAVLNVNGHEFDMEIHIELHNGRAKTIRIDPRAINHMTK”, “DREAKKRADQYMEVIQNGDPEKFKHQADENVRVEVGNHEYHGRESMAKELKKRRDEIRIDIRRYSIDNQGEKVRIEVDAVAQINGRPRTYSYVFEMTFQNGRIKKFTLQISEDDEQNLKS” is lower in protease stability score: 0.746 for the first, 0.014 for the second.

Compared with “DEDAIRSVEKMLQDRRTGNPHEVQKMFDPNAQVDVGDKTVQGRENIKDHVETDLRQSRFHMEIKHVQAHNGQIDIDAERSYTRNGQPDSNRVEIVIDIKNGKIRSVKVRTDD”, “DQEAAQDMRQWINAWNQNNPRKLRKLVDENARINIGEWHLQGRERIHKFAEKLIHEMDVQFSIKSFHVQGNKIKANLRIVANINGRPHEVNANLVVIVHNGHIKEIKATLDEDQIRHLNS” is higher in protease stability score: -0.488 for the first, 0.648 for the second.

Going from “DEDREAKKNLENMQKVLEKGDPDKMSELVDEDVRFVVGDKTFQGREDVRRRMETNVKRVDHIEVQIKHYEVKNGRARADAVFRVEVNGKETTRKFDVQVKVENGRFRVEQIRYK” to “DDEKARRWLHTMRDVINRGDPDKWRKLVDENVRLEIGDKEYHGREDARKWMKELRDQVDEIHIKTISAHGDKIEVTMEYKHNGRTRRITVVARIRDGRIKMVQVRDS”, the protease stability score rises from 0.265 to 1.8.

First: DEERDERVATKVAEAMATGDPEKVMEQAPPNAEMRIGDKHFTGEEHIKQALLEWKRDADHIQVDHVSVQNGRAHMDMQFTINGRKRRYTLRVEVHNGKAKTVSVREP
Second: DEELFELLRELLKAEQTGDEERLSQLVDKDVSVKIGDHVIHGRDQFAKHASERHKQMDVKVRIDSYEVRGDQVEASMTVVHDHNGRPHKDTVTLQAKYDNGKIKEMRFDFDTTVLKKIES
The protease stability score of the first is lower: 0.315 for the first, 0.609 for the second.

First: DDDKRAEDWAKELIKVEQEGDEDQMERNADEDVRLKYGDTEIHGREQFREHVREQIERVDSVDVRIETFHMHNGRLDMVAEVEVQVDGRKHKDRFVFHAVDHNGRMLLKSASEG
Second: DEENQQDYARKMNEMIVQNDPDEALRLFDPNVKVDIGDTRIDGRHDLERWVEDLKKQVDHVQLHDVKFRGDHASIHIEMTVNGRTISQIYHIVFHNGKAKEMKVETK
The protease stability score of the first is lower: 0.522 for the first, 0.567 for the second.

First: DEHNEAVELMKKLWEAARTGDEEELHKQVDKDVRINVGDKELHGNSQAARKIMERAKRVDHVDVKIQEVTHKGDKIVMRVQFRNTHNGRETDSRYVVWFKNSNGRWVFVKIERG
Second: DTRSVMKDILKKIQENLKTGDPQHAADLFDPNVSVRVGDKELRGREQVRKKMKEERDRVDHVDMRIHDMKVSNGRVVVHYTWTVTVNGRKETNRAQLHADNEGDKALVTEVNVK
The protease stability score of the first is higher: 1.31 for the first, -0.106 for the second.

Going from “DEESMHRMVTDLMHIIDSGNPDEAVKLADPNVQVTYGDRKYHGQDAVRDYIRELKKRVDTVNLKRVELSGEKATATAVFNVNGNRVDVEMTVTAQNGKIQSIDASVRDPDQKRKEKK” to “DDRIRQVVEEWWKAVETNDPDKAKENVDKDVRVEVGDKQFRGSETLEKRIRDEKDHARVVVRMQSVSVHGDTVDVTYNVVVEVNGNPLRFKAQAFFRARNGRMQSIQFSFSKEDKKRVDG”, the protease stability score rises from 0.8 to 0.916.

Compared with “DEEKMLRIAKKMVDALKNGDKDKVKKLGAEGVKVHAMDEEVEGPDQLAKYAKKFKDIGVHVEYKETEYKGDTVTFHTEAEKGDAKVRFEVHYVVKGDKVQKVEVRVDKDQLTEFRKS”, “DEEDNTRLVNLFEHNDWDTIADQADPEAQLVIGDKTYTGREEVKKALSTLVERVDRIEFKRFDVHGNKIHVKMELRFDGRNIELVMRITIKNGRIKSIKIRARDKEVEKILKEMHS” is higher in protease stability score: 0.524 for the first, 1.22 for the second.

First: DKDALRVFERFLEAVETNDPKQVQEQADPNAHFDIGDRTYHGMDEIATKMFEEQEKIHLSVQIRDVKDHGDKAVIKAEFSSERNGKPHSKTVRIEVQAHNGQMVKLVMTDDQ
Second: DDELKRIVHQLMEALKHGDNDQWRKNVDPNVSVKIGDKELHGREEFARQIQRIKRELHLEIDIHDVKVKNGRADLDMTETRSENGQPETNRLRISYVIDNGKFKSVTLNIKQ
The protease stability score of the first is lower: -0.309 for the first, 0.222 for the second.
